Columns and labels:
[1] = molecular target: Cytotoxic T-lymphocyte-associated protein 4 (CTLA4), human (human) (UniProt P16410); assay: cell-based or functional assay
[2] = molecular target: Programmed cell death protein 1 (PD1), human (human) (UniProt Q15116); assay: cell-based or functional assay

**Q.** What does the source list for XmAb20717 (bispecific antibody)?
**A.** IL-2 secretion from SEB-stimulated human PBMC (ELISA), fold increase versus a mixture of XENP20111 and XENP20059 [1]: 1.6 fold; IL-2 secretion from SEB-stimulated human PBMC (ELISA), fold increase versus a mixture of XENP20111 and XENP20059 [2]: 1.6 fold

From US20250115667A1
